Positions count from the first letter of the chain named. Like-named read-outs stand apart in the source and are kept apart here. One block for each binder: values may come before it.
How the values were obtained:
human VEGF [1] = molecular target: T1, human VEGF (human, UniProt P15692 207-395, biotinylated (site not stated)); test: Biacore SPR, hVEGF
T1 construct: Biotinylated human VEGF generated internally; also called hVEGF; hVEGF-biotin
T1 sequence: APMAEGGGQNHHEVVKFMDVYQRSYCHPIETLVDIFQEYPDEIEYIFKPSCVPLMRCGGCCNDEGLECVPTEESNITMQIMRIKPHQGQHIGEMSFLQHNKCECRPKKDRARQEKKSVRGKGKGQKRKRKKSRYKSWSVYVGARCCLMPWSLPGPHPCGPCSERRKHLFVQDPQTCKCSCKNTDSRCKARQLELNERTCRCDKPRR

human VEGF [2] = molecular target: T1, human VEGF; test: Biacore SPR, hVEGF; remark: listed apart in the source
Protocol: At first, individual CDR residues were substituted and the affinity for hVEGF was measured by Biacore as described below. […] HC8T, and HC9T and the affinity of the resulting peptide-tagged Fab for both HA and hVEGF was measured by Biacore as described below (Table 17).
Affinity of optimized HA-binding peptide tags for HA and human VEGF were measured by Biacore. […] In order to determine target kinetics, two different formats were utilized. […] The second format is an anti-fab capture method in which the fab protein samples are captured and the target proteins flowed over at various concentrations.
The sample compartment which includes the analytes, ligands, and regeneration buffer, is kept at 15° C. All other running conditions were carried out at either 25° C. or 37° C. in 1×HBSE+P buffer. […] Data was collected at 10 Hz and analyzed using the Biacore T200 Evaluation Software (GE Healthcare®). This program uses a global fitting analysis method for the determination of rate and affinity constants for each interaction.

Kd (human VEGF [1]): 7.1 pM
koff (human VEGF [1]): 0.000219 s⁻¹
kon (human VEGF [1]): 3.09e+07 M⁻¹ s⁻¹
B1: NVS101 (Fab)
heavy: EVQLVESGGGLVQPGGSLRLSCTASGFSLTDYYYMTWVRQAPGKGLEWVGFIDPDDDPYYATWAKGRFTISRDNSKNTLYLQMNSLRAEDTAVYYCAGGDHNSGWGLDIWGQGTLVTVSSASTKGPSVFPLAPSSKSTSGGTAALGCLVKDYFPEPVTVSWNSGALTSGVHTFPAVLQSSGLYSLSSVVTVPSSSLGTQTYICNVNHKPSNTKVDKRVEPKSC
light: ACGVYHREAQSGKYYLTYAEAKAVCEFEGGHLATYKQLLCAQKIGFHVCAAGWMAKGRVGYPIVKPGPNCGFGKTGIIDYGIRLNRSERWDAYCYNPHAGGGSDIVMTQSPSTLSASVGDRVIITCQASEIIHSWLAWYQQKPGKAPKLLIYLASTLASGVPSRFSGSGSGAEFTLTISSLQPDDFATYYCQNVYLASTNGANFGQGTKLTVLKRTVAAPSVFIFPPSDEQLKSGTASVVCLLNNFYPREAKVQWKVDNALQSGNSQESVTEQDSKDSTYSLSSTLTLSKADYEKHKVYACEVTHQGLSSPVTKSFNRGEC

Kd (human VEGF [1]): 2.34 pM
koff (human VEGF [1]): 0.000128 s⁻¹
kon (human VEGF [1]): 5.49e+07 M⁻¹ s⁻¹
B2: NVS103 (Fab)
heavy: B1 heavy
light: DIVMTQSPSTLSASVGDRVIITCQASEIIHSWLAWYQQKPGKAPKLLIYLASTLASGVPSRFSGSGSGAEFTLTISSLQPDDFATYYCQNVYLASTNGANFGQGTKLTVLKRTVAAPSVFIFPPSDEQLKSGTASVVCLLNNFYPREAKVQWKVDNALQSGNSQESVTEQDSKDSTYSLSSTLTLSKADYEKHKVYACEVTHQGLSSPVTKSFNRGECGSGGGACGVYHREAQSGKYYLTYAEAKAVCEFEGGHLATYKQLLCAQKIGFHVCAAGWMAKGRVGYPIVKPGPNCGFGKTGIIDYGIRLNRSERWDAYCYNPHA
notes: Tag NVS-AX at the C-terminus of the NVS4 light chain

Kd (human VEGF [1]): 0.854 pM
koff (human VEGF [1]): 1.57e-05 s⁻¹
kon (human VEGF [1]): 1.84e+07 M⁻¹ s⁻¹
B3: NVS104 (Fab)
heavy: GACGVYHREAQSGKYYLTYAEAKAVCEFEGGHLATYKQLLCAQKIGFHVCAAGWMAKGRVGYPIVKPGPNCGFGKTGIIDYGIRLNRSERWDAYCYNPHAGGGSQVQLVESGGGLVQPGGSLRLSCTASGFSLTDYYYMTWVRQAPGKGLEWVGFIDPDDDPYYATWAKGRFTISRDNSKNTLYLQMNSLRAEDTAVYYCAGGDHNSGWGLDIWGQGTLVTVSSASTKGPSVFPLAPSSKSTSGGTAALGCLVKDYFPEPVTVSWNSGALTSGVHTFPAVLQSSGLYSLSSVVTVPSSSLGTQTYICNVNHKPSNTKVDKRVEPKSC
light: B1 light
notes: Tag NVS-AX at the N-terminus of NVS4 heavy and light chains

Kd (human VEGF [1]): 10.4 pM
koff (human VEGF [1]): 0.000563 s⁻¹
kon (human VEGF [1]): 5.4e+07 M⁻¹ s⁻¹
B4: NVS106 (Fab)
heavy: B3 heavy with Q105E, D135N, D159Q, D160N, D204N, D212N
light: B1 light with D104E, E130Q, I131K, L153Q, T156K, S159K
notes: Tag NVS-AX at the N-terminus of the LC2 light chain and the HC4 heavy chain

Kd (human VEGF [1]): 0.465 pM
koff (human VEGF [1]): 2.11e-05 s⁻¹
kon (human VEGF [1]): 4.53e+07 M⁻¹ s⁻¹
B5: NVS4/NVSX (Fab)
heavy: EVQLVESGGGLVQPGGSLRLSCTASGFSLTDYYYMTWVRQAPGKGLEWVGFIDPDDDPYYATWAKGRFTISRDNSKNTLYLQMNSLRAEDTAVYYCAGGDHNSGWGLDIWGQGTLVTVSSASTKGPSVFPLAPSSKSTSGGTAALGCLVKDYFPEPVTVSWNSGALTSGVHTFPAVLQSSGLYSLSSVVTVPSSSLGTQTYICNVNHKPSNTKVDKRVEPKSCGSGGGGVYHREAISGKYYLTYAEAKAVCEFEGGHLATYKQLLAAQKIGFHVCAAGWMAKGRVGYPIVKPGPNCGFGKTGIIDYGIRLNRSERWDAYCYNPHA
light: EIVMTQSPSTLSASVGDRVIITCQASEIIHSWLAWYQQKPGKAPKLLIYLASTLASGVPSRFSGSGSGAEFTLTISSLQPDDFATYYCQNVYLASTNGANFGQGTKLTVLKRTVAAPSVFIFPPSDEQLKSGTASVVCLLNNFYPREAKVQWKVDNALQSGNSQESVTEQDSKDSTYSLSSTLTLSKADYEKHKVYACEVTHQGLSSPVTKSFNRGEC
notes: NVS4 Fab linked to peptide tag NVS-X

Kd (human VEGF [1]): 1.34 pM
koff (human VEGF [1]): 4.97e-05 s⁻¹
kon (human VEGF [1]): 3.71e+07 M⁻¹ s⁻¹
B6: NVS100 (Fab)
heavy: B3 heavy
light: B5 light
notes: Tag NVS-AX at the N-terminus of the NVS4 heavy chain

Kd (human VEGF [2]): 1.09 pM
koff (human VEGF [2]): 9.66e-05 s⁻¹
kon (human VEGF [2]): 8.88e+07 M⁻¹ s⁻¹
B7: LC6T (Fab, V domains shown)
VH: EVQLVESGGGLVQPGGSLRLSCTASGFSLTDYYYMTWVRQAPGKGLEWVGFIDPDDDPYYATWAKGRFTISRDNSKNTLYLQMNSLRAEDTAVYYCAGGDHNSGWGLDIWGQGTLVTVSS
VL: EIVMTQSPSTLSASVGDRVIITCQASQIIHSWLAWYQQKPGKAPKLLIYQASTLAKGVPSRFSGSGSGAEFTLTISSLQPDDFATYYCQNVYLASRNGANFGQGTKLTVLK
notes: Light chain CDR variant LC6 with tagged NVS4 heavy chain

Kd (human VEGF [2]): 3.79 pM
koff (human VEGF [2]): 0.000229 s⁻¹
kon (human VEGF [2]): 6.06e+07 M⁻¹ s⁻¹
B8: LC7T (Fab, V domains shown)
VH: B7 VH
VL: B7 VL with I28K, H30K, Q50L
notes: Light chain CDR variant LC7 with tagged NVS4 heavy chain

Kd (human VEGF [1]): 1.43 pM
koff (human VEGF [1]): 0.000134 s⁻¹
kon (human VEGF [1]): 9.35e+07 M⁻¹ s⁻¹
B9: NVS102 (Fab)
heavy: QVQLVESGGGLVQPGGSLRLSCTASGFSLTDYYYMTWVRQAPGKGLEWVGFIDPDDDPYYATWAKGRFTISRDNSKNTLYLQMNSLRAEDTAVYYCAGGDHNSGWGLDIWGQGTLVTVSSASTKGPSVFPLAPSSKSTSGGTAALGCLVKDYFPEPVTVSWNSGALTSGVHTFPAVLQSSGLYSLSSVVTVPSSSLGTQTYICNVNHKPSNTKVDKRVEPKSCGSGGGACGVYHREAQSGKYYLTYAEAKAVCEFEGGHLATYKQLLCAQKIGFHVCAAGWMAKGRVGYPIVKPGPNCGFGKTGIIDYGIRLNRSERWDAYCYNPHA
light: B5 light
notes: Tag NVS-AX at the C-terminus of the NVS4 heavy chain

Kd (human VEGF [1]): 0.447 pM
koff (human VEGF [1]): 2.26e-05 s⁻¹
kon (human VEGF [1]): 5.06e+07 M⁻¹ s⁻¹
B10: NVS4/NVSY (Fab)
heavy: B5 heavy with L265Q
light: B5 light
notes: NVS4 Fab linked to peptide tag NVS-Y

— patent US20170290876A1 (Novartis, published 2017)
